Test results from paper doi:10.1101/2023.11.20.565808 (bioRxiv, 2023).

Biological target: GST-fused RACK1, WT (human, UniProt P63244 1-317)
Experiment: pull-down

- binding result: binds
B1: His6-YTHDF2, WT (FL) (natural protein)
chain: MSASSLLEQRPKGQGNKVQNGSVHQKDGLNDDDFEPYLSPQARPNNAYTAMSDSYLPSYYSPSIGFSYSLGEAAWSTGGDTAMPYLTSYGQLSNGEPHFLPDAMFGQPGALGSTPFLGQHGFNFFPSGIDFSAWGNNSSQGQSTQSSGYSSNYAYAPSSLGGAMIDGQSAFANETLNKAPGMNTIDQGMAALKLGSTEVASNVPKVVGSAVGSGSITSNIVASNSLPPATIAPPKPASWADIASKPAKQQPKLKTKNGIAGSSLPPPPIKHNMDIGTWDNKGPVAKAPSQALVQNIGQPTQGSPQPVGQQANNSPPVAQASVGQQTQPLPPPPPQPAQLSVQQQAAQPTRWVAPRNRGSGFGHNGVDGNGVGQSQAGSGSTPSEPHPVLEKLRSINNYNPKDFDWNLKHGRVFIIKSYSEDDIHRSIKYNIWCSTEHGNKRLDAAYRSMNGKGPVYLLFSVNGSGHFCGVAEMKSAVDYNTCAGVWSQDKWKGRFDVRWIFVKDVPNSQLRHIRLENNENKPVTNSRDTQEVPLEKAKQVLKIIASYKHTTSIFDDFSHYEKRQEEEESVKKERQGRGK
